Experimental data: patent US20200248181

System: gluten (wheat allergen)
Assay: SPR
Conditions: 20-mer poly(dA) added at 5' end for SPR immobilization; 40 mM HEPES pH 7.5, 125 mM NaCl, 5 mM KCl, 1 mM MgCl2, 0.01% Tween 20; aptamer immobilized via poly(dA)/biotin-poly(dT)

Sequence	Kd [nM]
GAGGTTGGGTGGGGGAGG [Aptamer 2]	18.6
GAGGTTGGGTGGGGGAGGCAGCATGCGGGA [Aptamer 1]	14.5
